We go through 17 molecules from patent US8673862 (dated 2014).

The test addresses T1, angiotensin converting enzyme (ACE) (UniProt P12821).
T1 chain: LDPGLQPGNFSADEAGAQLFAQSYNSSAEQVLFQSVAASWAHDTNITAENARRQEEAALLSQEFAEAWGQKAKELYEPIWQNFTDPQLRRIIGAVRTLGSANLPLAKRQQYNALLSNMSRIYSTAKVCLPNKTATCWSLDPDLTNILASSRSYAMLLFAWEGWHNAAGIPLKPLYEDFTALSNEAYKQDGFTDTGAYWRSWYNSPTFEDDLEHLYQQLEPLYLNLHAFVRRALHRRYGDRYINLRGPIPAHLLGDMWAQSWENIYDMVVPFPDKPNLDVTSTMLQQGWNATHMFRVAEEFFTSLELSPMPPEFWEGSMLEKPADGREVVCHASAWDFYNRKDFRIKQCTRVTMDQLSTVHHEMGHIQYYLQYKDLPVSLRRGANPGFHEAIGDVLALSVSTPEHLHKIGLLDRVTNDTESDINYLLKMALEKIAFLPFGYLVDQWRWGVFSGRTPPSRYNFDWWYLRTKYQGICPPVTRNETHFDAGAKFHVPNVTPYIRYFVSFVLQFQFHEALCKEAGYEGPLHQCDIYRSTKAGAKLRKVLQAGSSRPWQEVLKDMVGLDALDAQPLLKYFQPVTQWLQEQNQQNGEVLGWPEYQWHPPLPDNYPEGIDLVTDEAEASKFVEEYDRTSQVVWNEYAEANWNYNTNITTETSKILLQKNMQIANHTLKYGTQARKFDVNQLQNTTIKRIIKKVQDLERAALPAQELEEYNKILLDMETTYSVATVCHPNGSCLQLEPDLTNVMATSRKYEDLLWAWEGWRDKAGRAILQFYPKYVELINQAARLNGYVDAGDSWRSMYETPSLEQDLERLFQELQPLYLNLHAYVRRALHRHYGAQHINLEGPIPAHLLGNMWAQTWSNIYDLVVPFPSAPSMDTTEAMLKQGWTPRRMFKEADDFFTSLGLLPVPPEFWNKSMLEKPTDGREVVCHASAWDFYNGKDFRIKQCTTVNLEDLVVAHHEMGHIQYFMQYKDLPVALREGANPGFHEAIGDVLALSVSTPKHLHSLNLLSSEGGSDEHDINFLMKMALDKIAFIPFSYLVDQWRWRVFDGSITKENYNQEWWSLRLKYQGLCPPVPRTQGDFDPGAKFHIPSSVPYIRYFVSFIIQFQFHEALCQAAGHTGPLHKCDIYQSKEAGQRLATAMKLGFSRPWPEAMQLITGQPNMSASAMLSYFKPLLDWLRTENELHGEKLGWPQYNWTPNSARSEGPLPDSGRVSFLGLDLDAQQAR
Description: other, ACE inhibition.
As to FVNHF, half-maximal inhibition (IC50) required 51.1 µM. Next, GLF: 83 µM; NDEG: 768 µM. LF had a half-maximal inhibitory concentration (IC50) of 83 µM. Next, FV: 979 µM. For TSF the value was 15.6 µM.

GNF yielded a half-maximal inhibitory concentration (IC50) of 26.9 µM. Consider VVN, for which the IC50 worked out at 77 µM.

With LL, the IC50 is 345 µM. With VGGS, half-maximal inhibition (IC50) was put at 35.5 µM. The molecule KK yielded an IC50 of 921 µM. Next, YY: 257 µM; WN: 368 µM; NSL: 64.9 µM. Turning to PDT, the 50% inhibitory concentration (IC50) came to 272 µM. Next, TF: 46.2 µM; TYA: 526 µM.
